# Several values for one entry are separate records, joined by “and”; a condition that tells them apart may be missing. Equal entries are not always repeated. Where two headings read alike, the source gives them in different places.
# B1: VHH3.149 (VHH)
# VHH: QVQLQESGGGLVQAGGSLKLSCAASGRTFSSYALGWFRQAPGTEREFVSAINWFGAPTYYADSVKGRFTISRDNAKNTVYLQMDNLKPEDTAVYYCAADSKGWDPQDMDYWGKGTQVTVSS
# B2: VHH3.115 (VHH)
# VHH: QVQLQESGGGLVQTGGSLRLSCAASGLTFSDIAMGWFRQAPGREREFVATISWSGGGTYYAEPVRGRFAISRDNAKNTVYLQMNSLKPEDTAVYYCAAAGAGTVVSEWDYDYDYWGQGTQVTVSS
# B3: D72-16: h1-VHH72-GS-hIgG1hinge-hIgG1Fc (Fc fusion)
# chain: EVQLVESGGGLVQPGGSLRLSCAASGRTFSEYAMGWFRQAPGKEREFVATISWSGGSTYYTDSVKGRFTISRDNAKNTVYLQMNSLRPEDTAVYYCAAAGLGTVVSEWDYDYDYWGQGTLVTVSSGS
# notes: ExpiCHO
# B4: D72-02: VHH72-GS-hIgG1hinge-hIgG1Fc (Fc fusion)
# chain: QVQLQESGGGLVQAGGSLRLSCAASGRTFSEYAMGWFRQAPGKEREFVATISWSGGSTYYTDSVKGRFTISRDNAKNTVYLQMNSLKPDDTAVYYCAAAGLGTVVSEWDYDYDYWGQGTQVTVSSGS
# B5: VHH3.77 (VHH)
# VHH: QVQLQESGGGLVQAGGSLRLSCVSSGRAFGNGAVGWFRQGPGRPREFVATVSWNGGGTYFAESVRGRFTISRDNAKNTVYLQMNNLKPEDTAVYYCALAGEGTVVSEWDYDYEYWGQGTQVTVSS
# B6: VHH3BE4 (VHH)
# VHH: QVQLQESGGGLVQAGGSLRLSCVASGRAFGNGAVGWFRQAPGREREFVATVSWNGGGTYYAESVRGRFTISRDNAKSTVYLQMNSLKPEDTAVYYCASAGEGTVVSEWDYDYDYWGQGTQVTVSS
# B7: VHH3.17 (VHH)
# VHH: QVQLQESGGGLVEAGGSLTLSCAASGRAFGDGAVGWFRQGPGRPREFVATVSWNGGGTYFAESVRGRFTISRDNAKNTVYLQMNNLKPEDTAVYYCALAGEGTVVSEWDYDYEYWGQGTQVTVSS
# B8: VHH3.144 (VHH)
# VHH: QVQLQESGGGLVQAGGSLRLSCVASGRAFGNGAVGWFRQAPGREREFVATVSWNGGGTYYAESVRGRFTISRDNAKSTVYLQMNSLKPEDTAVYYCASAGEGTVVSEWDYDYDYWGQGTQVTVSS
# B9: VHH3.35 (VHH)
# VHH: QVQLQESGGGLVQAGGSLTLSCEVSGRTNDNYGVGWFRQVPGAERELVAAIRWSSISRYYKDSVKGRFTISRDNAKNTVYLQMDMLKAEDTAVYYCAADPAGWSEFGMEYWGKGTQVTVSS
# B10: VHH3.55 (VHH)
# VHH: QVQLQESGGGLVQAGGSLRLSCEVSGRTNDNYGVGWFRQVPGAERELVAAIRWSSISRYYKDSVKGRFTISRDNAKNTVYLQMDMLKPEDTAAYYCAADPAGWSEFGMEYWGKGTQVTVSS
# B11: VHH3.47 (VHH)
# VHH: QVQLQESGGGLVQAGDSLRLSCAASGHNFSTYAMAWFRQAPGTERELVAAISENDVMRYYADSVKGRFTISRDNAKNMAYLQMNSLKVEDTAVYLCAADPKGWSEWDMDYWGKGTQVTVSS
# B12: D72-13: VHH72-h1_(G4S)3-VHH72-h1_GS_hIgG1hinge-hIgG1Fc (Fc fusion)
# chain: EVQLVESGGGLVQPGGSLRLSCAASGRTFSEYAMGWFRQAPGKEREFVATISWSGGSTYYTDSVKGRFTISRDNAKNTVYLQMNSLRPEDTAVYYCAAAGLGTVVSEWDYDYDYWGQGTLVTVSSGGGGSGGGGSGGGGSEVQLVESGGGLVQPGGSLRLSCAASGRTFSEYAMGWFRQAPGKEREFVATISWSGGSTYYTDSVKGRFTISRDNAKNTVYLQMNSLRPEDTAVYYCAAAGLGTVVSEWDYDYDYWGQGTLVTVSSGS
# notes: ExpiCHO; tetravalent
# B13: VHH72 - hIgG1.Hinge-hIgG1.Fc (Fc fusion)
# VHH-Fc chain: QVQLQESGGGLVQAGGSLRLSCAASGRTFSEYAMGWFRQAPGKEREFVATISWSGGSTYYTDSVKGRFTISRDNAKNTVYLQMNSLKPDDTAVYYCAAAGLGTVVSEWDYDYDYWGQGTQVTVSS
# B14: parental VHH72-hIgG1 Fc (P. pastoris supernatant) (Fc fusion)
# chain: QVQLQESGGGLVQAGGSLRLSCAASGRTFSEYAMGWFRQAPGKEREFVATISWSGGSTYYTDSVKGRFTISRDNAKNTVYLQMNSLKPDDTAVYYCAAAGLGTVVSEWDYDYDYWGQGTQVTVSS
# B15: VHH72_h1(S56A) (VHH)
# VHH: EVQLVESGGGLVQPGGSLRLSCAASGRTFSEYAMGWFRQAPGKEREFVATISWSGGATYYTDSVKGRFTISRDNAKNTVYLQMNSLRPEDTAVYYCAAAGLGTVVSEWDYDYDYWGQGTLVTVSS
# B16: VHH2.50 (VHH)
# VHH: QVQLQESGGGLVQAGGSLRLSCAASGRTFSSIAMGWFRQAPGKEREFVATISWSGGSTYYADSVKGRFTISRDNAKNTVYLQMNSLKPEDTAVYYCAAAGLGTVVSEWDYDYDYWGQGTQVTVSS
# B17: VHH3.29 (VHH)
# VHH: QVQLQESGGGLVQAGGSLRLSCVASGRTFSSGGMGWFRQAPGQEREFVAGIGWAGLSSYYLDSVKGRFTISLDNAKNTVYLQMNMLKPEDTGVYYCAADDHGWSAAGMDYLGQGTQVTVSS
# B18: VHH3.36 (VHH)
# VHH: QVQLQESGGGLVQAGDSLRLSCVVSGGTFSSYAMGWFRQAPGKERELVAAINWGGISVYYADSVKGRFTISRDNAENTVYLQMNSLKPEDTAVYYCAADPKGWSEWDMEYWGKGTQVTVSS
# B19: VHH3.38 (VHH)
# VHH: QVQLQESGGGLVQAGGSLRLSCAASGGTFNNYAMAWFRQAPGQERELVAAMFWSGLPKYYADSVKGRFTISTDDAKNTVYLQMNGLKPEDTAVYYCAADSRGWSDVGGMDYWGKGTQVTVSS
# B20: VHH3.83 (VHH)
# VHH: QVQLQESGGGLVQPGDSLRLSCVLSGGVFTSYAMGWFRQAPGKEREFLAAITFNSDATYYADSVKGRFTISRDNAKNTAYLQMNSLKPNDTAVYSCAAGGNHYNPQYYHDYDKYDHWGQGTQVTVSS
# Experiments:
# BSA [1] = target: T1, BSA (Bos taurus, UniProt P02769); experiment: ELISA on coated BSA, anti-VHH-HRP, OD450 [lower graph]
# T1 construct: coated on the ELISA plate; also called negative control antigen
# T1 sequence (P02769 25-607 limits assumed): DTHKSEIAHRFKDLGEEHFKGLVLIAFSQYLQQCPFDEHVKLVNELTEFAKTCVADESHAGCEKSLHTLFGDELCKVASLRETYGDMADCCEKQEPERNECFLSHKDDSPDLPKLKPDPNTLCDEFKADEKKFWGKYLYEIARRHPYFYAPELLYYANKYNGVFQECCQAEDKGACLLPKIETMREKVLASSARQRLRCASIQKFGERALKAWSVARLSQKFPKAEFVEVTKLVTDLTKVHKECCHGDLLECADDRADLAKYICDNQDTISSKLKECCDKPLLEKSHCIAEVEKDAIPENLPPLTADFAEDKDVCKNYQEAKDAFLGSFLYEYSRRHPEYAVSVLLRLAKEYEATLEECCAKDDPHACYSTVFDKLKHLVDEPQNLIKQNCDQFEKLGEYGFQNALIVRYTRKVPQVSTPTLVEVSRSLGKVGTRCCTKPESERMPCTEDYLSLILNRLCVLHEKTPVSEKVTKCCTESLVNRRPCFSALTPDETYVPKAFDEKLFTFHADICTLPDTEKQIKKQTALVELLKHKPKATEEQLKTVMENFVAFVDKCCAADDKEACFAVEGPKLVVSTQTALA
# [2] = target: T2, Mouse IgG1 Fc fused SARS-CoV-2 RBD (Sino Biological) (SARS-CoV-2; mouse, UniProt P0DTC2 330-518); experiment: ELISA on coated SARS-CoV-2 RBD-muFc, anti-VHH-HRP, OD450 [lower graph]
# [3] = target: SARS-CoV-2 RBD protein Avi-tag biotinylated (AcroBiosystems SPD-C82E9) (SARS-CoV-2, UniProt P0DTC2 330-518); experiment: competition AlphaLISA; competitor human ACE2-mFc
# [4] = target: SARS-CoV-2 spike, full length, on cells or on pseudotyped/authentic virus (SARS-CoV-2, UniProt P0DTC2 14-1273); experiment: cell-based or functional assay
# [5] = target: T2, Mouse IgG1 Fc fused SARS-CoV-2 RBD …
# [6] = target: T2, Mouse IgG1 Fc fused SARS-CoV-2 RBD …; experiment: BLI, RBD-mFc on AMC tips, global 1:1 fit
# BSA [7] = target: T1, BSA; experiment: ELISA on coated BSA, anti-VHH-HRP, OD450 [upper graph]
# [8] = target: T2, Mouse IgG1 Fc fused SARS-CoV-2 RBD …; experiment: ELISA on coated SARS-CoV-2 RBD-muFc, anti-VHH-HRP, OD450 [upper graph]
# [9] = target: T3, WT SARS-CoV-2 RBD displayed on Saccharomyces cerevisiae (SARS-CoV-2, UniProt P0DTC2 331-518); experiment: flow cytometry, yeast cells displaying WT RBD
# [10] = target: T3, WT SARS-CoV-2 RBD displayed on …
# [11] = target: T2, Mouse IgG1 Fc fused SARS-CoV-2 RBD …; remark: listed apart in the source
binder,measurement,setting,value
B1,binding result,BSA [1],no binding (tested: about 20 µg/ml)
same,EC50 (read off the curve),[2],~0.006 mg/L
same,% inhibition,[3],98%
same,IC50,[3],0.902 nM
B2,binding result,BSA [1],no binding (tested: about 20 µg/ml)
same,EC50 (read off the curve),[2],~0.006 mg/L
same,% inhibition,[3],100%
same,IC50,[3],1.08 nM
B3,"IC50, plaque reduction neutralization, authentic SARS-CoV-2",[4],0.94 mg/L
same,EC50,[5],0.00965 mg/L
same,Kd,[6],0.102 nM
same,koff,[6],0.000191 s⁻¹
same,kon,[6],1.89e+06 M⁻¹ s⁻¹
B4,"IC50, plaque reduction neutralization, authentic SARS-CoV-2",[4],1.01 mg/L
same,EC50,[5],0.00695 mg/L
same,Kd,[6],0.142 nM
same,koff,[6],0.00026 s⁻¹
same,kon,[6],1.83e+06 M⁻¹ s⁻¹
B5,binding result,BSA [1],no binding (tested: about 20 µg/ml)
same,EC50 (read off the curve),[2],~0.03 mg/L
same,% inhibition,[3],97%
same,IC50,[3],0.723 nM
B6,% inhibition,[3],100%
same,IC50,[3],0.634 nM
B7,binding result,BSA [7],no binding (tested: about 20 µg/ml)
same,EC50 (read off the curve),[8],~0.05 mg/L
same,% inhibition,[3],99%
same,IC50,[3],1.03 nM
B8,binding result,BSA [1],no binding (tested: about 20 µg/ml)
same,% inhibition,[3],100%
same,IC50,[3],1.12 nM
B9,binding result,BSA [7],no binding (tested: about 20 µg/ml)
same,EC50 (read off the curve),[8],~0.04 mg/L
same,% inhibition,[3],100%
same,IC50,[3],1.06 nM
B10,concentration at which binding was just below saturation,[9],10 ng/mL
same,EC50 (read off the curve),[10],~0.002 mg/L
same,binding result,BSA [1],no binding (tested: about 20 µg/ml)
same,EC50 (read off the curve),[2],~0.01 mg/L
same,% inhibition,[3],100%
same,IC50,[3],0.817 nM
B11,EC50 (read off the curve),[2],~0.03 mg/L
same,% inhibition,[3],100%
same,IC50,[3],0.729 nM
B12,"PRNT50, authentic SARS-CoV-2",[4],0.1 µg/mL
same,Kd,[6],< 0.001 nM
same,koff,[6],< 1e-07 s⁻¹
same,kon,[6],2.65e+06 M⁻¹ s⁻¹
B13,Kd,[11],0.0874 nM and 0.0895 nM
same,koff,[11],0.000252 s⁻¹ and 0.000288 s⁻¹
same,kon,[11],2.88e+06 M⁻¹ s⁻¹ and 3.22e+06 M⁻¹ s⁻¹
B14,Kd,[11],0.0786 nM and 0.0765 nM
same,koff,[11],0.000261 s⁻¹ and 0.000283 s⁻¹
same,kon,[11],3.33e+06 M⁻¹ s⁻¹ and 3.7e+06 M⁻¹ s⁻¹
B15,binding result,BSA [7],no binding (tested: about 20 µg/ml)
B16,% inhibition,[3],79%
same,IC50,[3],34.2 nM
B17,binding result,BSA [7],no binding (tested: about 20 µg/ml)
same,EC50 (read off the curve),[8],~0.03 mg/L
same,% inhibition,[3],97%
same,IC50,[3],1 nM
B18,binding result,BSA [7],no binding (tested: about 20 µg/ml)
same,EC50 (read off the curve),[8],~0.05 mg/L
same,% inhibition,[3],100%
same,IC50,[3],0.562 nM
B19,concentration at which binding was just below saturation,[9],10 ng/mL
same,binding result,BSA [7],no binding (tested: about 20 µg/ml)
same,EC50 (read off the curve),[8],~0.04 mg/L
same,EC50 (read off the curve),[10],~0.001 mg/L
same,% inhibition,[3],99%
same,IC50,[3],2.01 nM
B20,concentration at which binding was just below saturation,[9],10 ng/mL
same,EC50 (read off the curve),[10],~0.003 mg/L
same,% inhibition,[3],74%
same,IC50,[3],0.46 nM
